Assay results reported in article PMC6356897.

Columns and labels:
Cys36 = Cys36 (UniProt position 37, FTATWCGPCKM); assay: chemical modification (iodoacetamide alkylation) with MALDI-TOF mass spectrometry; conditions: not stated for the alkylation step (pre-reduction at 25 °C); 200 mM acetate/acetic acid (pH 3.5-5.5); 100 mM phosphate (pH 6.0-8.0); 100 mM HEPES-NaOH (pH 7.5-8.5); 100 mM glycine (above pH 8.5); carry-over of 50 mM phosphate pH 7.1 and TCEP from pre-reduction; fully reduced (TCEP), both active-site cysteines free thiols
Cys39 = Cys39 (UniProt position 40, TWCGPCKMIAP); assay: as above; conditions: not stated for the alkylation step (pre-reduction at 25 °C); 200 mM acetate/acetic acid (pH 3.5-5.5); 100 mM phosphate (pH 6.0-8.0); 100 mM HEPES-NaOH (pH 7.5-8.5); 100 mM glycine (above pH 8.5); carry-over of 40 mM phosphate pH 7.1 from pre-alkylation; Cys36 pre-alkylated (carbamidomethylated), Cys39 free thiol

Row | Substance | pKa (Cys36) | pKa (Cys39)
1 | Thioredoxin h1 (CrTRXh1) (Chlamydomonas reinhardtii) | 6.63 ± 0.13 | –
2 | Thioredoxin h1 (CrTRXh1), monoalkylated at Cys36 (CrTRXh1-CAM) (Chlamydomonas reinhardtii) | – | 9.53 ± 0.12
